Reference: US5886163, “HIV-1 antigens, antibody compositions related thereto, and therapeutic and prophylactic uses thereof” (Progenics Pharmaceuticals, Inc., dated 1999)

Target: human CD4 on the membrane surface of DG44 #3 cells (human, UniProt P01730)
Assay: FACS on DG44 #3 cells (CHO cells transfected with human CD4 cDNA)

B1: HIV-1 gp120LAI (ligand)
chain: not shown
  binding result: binds
